Experimental data reported in patent US20170319648A1.
Positions of bridges follow the written chain, without caps; N, C: chain ends. Non-standard residues stand in square brackets, D forms with d. No end group written: not given here. hCys = N[C@@H](CCS)C(=O)O; Orn = NCCC[C@H](N)C(=O)O; Dab = NCC[C@H](N)C(=O)O

Target: TEAD
Experiment: IC50 for TEAD binding; method not named in the example (TR-FRET test is the filing's screening method)

TEAD, sequence (P28347 209-426): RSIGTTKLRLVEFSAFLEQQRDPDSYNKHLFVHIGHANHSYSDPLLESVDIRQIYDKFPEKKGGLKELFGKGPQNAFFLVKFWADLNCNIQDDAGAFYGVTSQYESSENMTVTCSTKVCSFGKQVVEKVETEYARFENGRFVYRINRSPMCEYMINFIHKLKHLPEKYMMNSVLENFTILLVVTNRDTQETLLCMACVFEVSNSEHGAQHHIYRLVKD

Binder	IC50
VPF[hCys]LR[Orn]LPDSFCKPPE (disulfide 4-13) [polypeptide of SEQ ID NO.: 5 (VPF(Hcy)LR(Orn)…)]	43 nM
VPF[hCys]LR[Dab]LPDSFCKPPE (disulfide 4-13) [polypeptide of SEQ ID NO.: 6 (VPF(Hcy)LR(Dab)…)]	28 nM
